The record followed here is article PMC6733924.

Test [1] has as its target GST fused to the TRPM8 C-terminal tail. The test can be described thus: pull-down; as a4, with 1, 10 or 100 nM testosterone during incubation of in vitro translated AR with the N- or C-terminal tail of TRPM8.
The target in test [2] is GST fused to the TRPM8 N-terminal tail. The test can be described thus: pull-down; purified GST-fusion proteins of the TRPM8 tails on beads incubated overnight at 4 °C with in vitro translated AR proteins, no testosterone; fluorescence imaging or anti-AR immunoblot; normalised to the input.

Sequence of in vitro translated AR (P10275 whole entry, the tested form may be a part): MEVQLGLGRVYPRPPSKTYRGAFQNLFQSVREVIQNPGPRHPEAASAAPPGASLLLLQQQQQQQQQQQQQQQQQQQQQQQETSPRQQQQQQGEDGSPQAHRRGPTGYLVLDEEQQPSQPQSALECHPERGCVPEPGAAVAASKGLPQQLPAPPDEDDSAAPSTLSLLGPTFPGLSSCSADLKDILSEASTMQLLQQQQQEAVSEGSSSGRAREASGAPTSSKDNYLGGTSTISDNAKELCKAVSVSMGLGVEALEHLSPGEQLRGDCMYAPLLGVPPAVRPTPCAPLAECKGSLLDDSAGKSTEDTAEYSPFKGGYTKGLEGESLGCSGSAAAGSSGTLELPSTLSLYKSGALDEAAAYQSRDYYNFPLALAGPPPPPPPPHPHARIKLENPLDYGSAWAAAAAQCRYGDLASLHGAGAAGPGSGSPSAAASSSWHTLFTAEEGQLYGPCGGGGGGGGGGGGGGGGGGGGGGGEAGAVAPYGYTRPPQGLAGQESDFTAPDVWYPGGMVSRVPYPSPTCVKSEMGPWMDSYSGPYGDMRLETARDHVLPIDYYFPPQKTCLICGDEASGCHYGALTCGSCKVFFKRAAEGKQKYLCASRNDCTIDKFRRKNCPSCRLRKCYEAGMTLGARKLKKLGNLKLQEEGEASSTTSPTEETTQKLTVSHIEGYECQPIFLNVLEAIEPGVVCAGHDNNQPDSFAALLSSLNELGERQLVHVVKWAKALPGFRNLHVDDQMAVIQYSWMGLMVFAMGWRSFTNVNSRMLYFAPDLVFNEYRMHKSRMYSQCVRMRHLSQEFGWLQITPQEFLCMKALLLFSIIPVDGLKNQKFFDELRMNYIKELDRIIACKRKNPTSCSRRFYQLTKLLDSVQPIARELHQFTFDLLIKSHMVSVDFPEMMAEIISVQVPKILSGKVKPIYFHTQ

Turning to “in vitro translated AR (from UniProt P10275 1-920) (natural protein)”, in test [1], the percent decrease of pulled-down AR with 1 nM testosterone amounted to 43%, the percent decrease of pulled-down AR with 10 nM testosterone turned out to be 65.6% and the percent decrease of pulled-down AR with 100 nM testosterone came out at 93.1%. The substance further gave a percent stronger pull-down by M8-Nt than by M8-Ct in test [2] of 48%.
